Test results taken from the Human Domainome abundance scans (Beltran et al. 2025).

B1: POU domain, class 3, transcription factor 3, residues 320 to 388; numbered along this chain, P20264 (parent)
chain: DDLEQFAKQFKQRRIKLGFTQADVGLALGTLYGNVFSQTTICRFEALQLSFKNMCKLKPLLNKWLEEAD

Variants of: B1
Experiment: abundance fitness (aPCA) (normalised: wild type 0, dead -1); higher = more abundant; growth selection in yeast, the domain comes from the species named
Conditions: Homo sapiens

Abundance fitness of substitutions, site by site:
R13: P -0.865 | K -0.062 | L -0.824 | Q -0.32 | G -0.745 | A -0.385 | I -0.771 | N -0.698 | H -0.263 | W -0.697 | T -0.561 | S -0.582 | E -0.311 | V -0.311 | Y -0.651 | M -0.578
T20: L -0.828 | R -0.908 | G -0.556 | V -1.02 | W -0.862 | K -0.738 | A -0.556 | P -0.627 | S -0.079
K11: S -0.541 | P -0.888 | A -0.298 | R -0.087 | L -0.944 | T -0.39 | G -0.926 | V -0.856 | M -0.386 | Q -0.106 | W -0.753
I15: H -0.875 | Q -0.052 | R -0.421 | P -0.501 | K -0.336 | M -0.426 | E 0.058 | S -0.17 | W -0.751 | G -0.778 | L -0.252 | F -0.249
K16: L -0.064 | W -0.696 | E -0.382 | D -0.102 | A 0.004 | Y -0.088 | C -0.543 | F -0.569 | T 0.021 | M -0.282 | R -0.088 | S -0.33 | Q -0.043
A22: F -0.293 | L -0.49 | S -0.243 | V -0.513 | P -0.849 | K 0.103 | E -0.17 | G -0.25 | W -0.83 | T -0.162 | R -0.163 | H 0.228 | Q 0.036 | I -0.392
F19: W -0.408 | R -0.466 | L -0.202 | I 0.119 | A -0.243 | V -0.236 | K -0.426 | S -0.848 | P -0.625 | E -0.495 | G -1.03
Q12: F -0.654 | V -0.265 | Y -0.176 | E -0.044 | S -0.143 | D -0.23 | C -0.438 | I -0.594 | G -0.636 | M -0.409 | T -0.283 | P -0.694 | W -0.146 | R -0.124 | L -0.201 | K -0.276 | A -0.1
G18: V -0.851 | P -0.964 | M -0.778 | A -0.542 | W -1.06 | E -0.893 | K -0.546 | S -0.906 | H -0.749 | R -0.532 | Q -0.785 | N -0.029 | L -0.935
F10: V -0.885 | Y -0.631 | W -0.636
Q21: W -0.284 | P -0.23 | A -0.281 | M -0.489 | C -0.278 | I 0.145 | E -0.061 | G -0.629 | R -0.184 | Y -0.147 | H -0.08 | T -0.507 | L -0.271 | S -0.242 | V -0.017 | K -0.298
D23: F -0.998 | K -0.764 | G -0.185 | V -0.937 | M -0.802 | S -0.743 | E -0.023 | P -1.04 | N -0.687 | Y -0.778 | R -0.187 | Q 0.039 | I -0.704
R14: E -0.859 | W -0.944 | T -0.939 | G -0.871 | F -0.829 | C -0.681 | A -0.823 | V -0.751 | Q -0.861 | Y -0.764 | L -0.783 | M -0.954 | S -0.813
V24: A -0.677 | F 0.197 | I -0.766 | D -0.882 | K -0.899 | C -0.531
